Test results from patent publication US20180355009A1.

T1: human IL-22 receptor complex IL22R1 and IL10R2, overexpressed on HEK 293 cells (human) (UniProt Q8N6P7)
T1 sequence (looked up) 1: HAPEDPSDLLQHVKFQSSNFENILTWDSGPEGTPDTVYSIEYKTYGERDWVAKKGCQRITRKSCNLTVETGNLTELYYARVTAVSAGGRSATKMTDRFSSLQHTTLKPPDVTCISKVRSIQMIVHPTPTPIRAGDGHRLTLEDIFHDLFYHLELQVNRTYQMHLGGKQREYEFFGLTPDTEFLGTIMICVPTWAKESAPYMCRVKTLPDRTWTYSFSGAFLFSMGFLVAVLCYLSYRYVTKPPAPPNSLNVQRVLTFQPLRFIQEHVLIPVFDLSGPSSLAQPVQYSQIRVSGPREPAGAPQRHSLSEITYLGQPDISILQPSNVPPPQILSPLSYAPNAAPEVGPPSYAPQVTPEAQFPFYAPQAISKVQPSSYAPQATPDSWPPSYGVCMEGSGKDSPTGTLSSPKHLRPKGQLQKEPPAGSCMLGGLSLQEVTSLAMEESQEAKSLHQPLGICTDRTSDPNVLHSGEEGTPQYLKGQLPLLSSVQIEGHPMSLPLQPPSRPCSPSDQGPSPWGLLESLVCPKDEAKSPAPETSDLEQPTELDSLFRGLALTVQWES
T1 sequence (looked up) 2: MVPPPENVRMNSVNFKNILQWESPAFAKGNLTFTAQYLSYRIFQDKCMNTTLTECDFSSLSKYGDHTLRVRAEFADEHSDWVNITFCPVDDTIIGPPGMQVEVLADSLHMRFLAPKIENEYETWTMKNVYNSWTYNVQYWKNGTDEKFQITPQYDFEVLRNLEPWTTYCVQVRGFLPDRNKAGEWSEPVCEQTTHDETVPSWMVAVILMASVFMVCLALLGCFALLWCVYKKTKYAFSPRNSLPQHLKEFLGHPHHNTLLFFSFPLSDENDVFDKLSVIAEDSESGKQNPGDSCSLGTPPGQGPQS

B1: IL-22 Fc construct 12 (huIgG1, linker …, produced in CHO) (Fc fusion, not shown: a dimerising Fc or GST)
chain: APISSHCRLDKSNFQQPYITNRTFMLAKEASLADNNTDVRLIGEKLFHGVSMSERCYLMKQVLNFTLEEVLFPQSDRFQPYMQEVVPFLARLSNRLSTCHIEGDDLHIQRNVQKLKDTVKKLGESGEIKAIGELDLLFMSLRNACIDKKVEPKSSDKTHT
B2: IL-22 Fc construct 13 (huIgG1, linker …, produced in CHO) (Fc fusion, not shown: a dimerising Fc or GST)
chain: APISSHCRLDKSNFQQPYITNRTFMLAKEASLADNNTDVRLIGEKLFHGVSMSERCYLMKQVLNFTLEEVLFPQSDRFQPYMQEVVPFLARLSNRLSTCHIEGDDLHIQRNVQKLKDTVKKLGESGEIKAIGELDLLFMSLRNACIKVDKKVEPKSSDKTHT
B3: IL-22 Fc construct 18 (huIgG1, linker …, N297G, produced in CHO) (Fc fusion, not shown: a dimerising Fc or GST)
chain: APISSHCRLDKSNFQQPYITNRTFMLAKEASLADNNTDVRLIGEKLFHGVSMSERCYLMKQVLNFTLEEVLFPQSDRFQPYMQEVVPFLARLSNRLSTCHIEGDDLHIQRNVQKLKDTVKKLGESGEIKAIGELDLLFMSLRNACIKKVEPKSSDKTHT
B4: IL-22 Fc construct 24 (huIgG1, linker …, produced in E. coli) (Fc fusion, not shown: a dimerising Fc or GST)
chain: APISSHCRLDKSNFQQPYITNRTFMLAKEASLADNNTDVRLIGEKLFHGVSMSERCYLMKQVLNFTLEEVLFPQSDRFQPYMQEVVPFLARLSNRLSTCHIEGDDLHIQRNVQKLKDTVKKLGESGEIKAIGELDLLFMSLRNACIEPKSSDKTHT

molecular target: T1, human IL-22 receptor complex IL22R1 and IL10R2, overexpressed on HEK 293 cells (human); experiment: cell-based or functional assay

| EC50 (pM), STAT3 luciferase reporter assay | Binder |
| --- | --- |
| 25 pM | B1 |
| 25 pM | B2 |
| 20 pM | B3 |
| 16 pM | B4 |
